Laboratory results published in article PMC4072685, “Galactose Oxidase from Fusarium oxysporum - Expression in E. coli and P. pastoris and Biochemical Characterization” (PLoS ONE, 2014).

Assays:
[1] = target: T1, GalOx (galactose 6-oxidase from Fusarium oxysporum G12) (Fusarium oxysporum, UniProt V5NQ89); assay: ABTS/horseradish peroxidase coupled assay, […] nm, Michaelis-Menten fit; details: apparent constant; co-substrate O2 (air); 20 mM potassium phosphate pH 7.0, 30°C; Cu2+-activated enzyme
T1 construct: gene gao
T1 sequence (V5NQ89 40-681 limits assumed): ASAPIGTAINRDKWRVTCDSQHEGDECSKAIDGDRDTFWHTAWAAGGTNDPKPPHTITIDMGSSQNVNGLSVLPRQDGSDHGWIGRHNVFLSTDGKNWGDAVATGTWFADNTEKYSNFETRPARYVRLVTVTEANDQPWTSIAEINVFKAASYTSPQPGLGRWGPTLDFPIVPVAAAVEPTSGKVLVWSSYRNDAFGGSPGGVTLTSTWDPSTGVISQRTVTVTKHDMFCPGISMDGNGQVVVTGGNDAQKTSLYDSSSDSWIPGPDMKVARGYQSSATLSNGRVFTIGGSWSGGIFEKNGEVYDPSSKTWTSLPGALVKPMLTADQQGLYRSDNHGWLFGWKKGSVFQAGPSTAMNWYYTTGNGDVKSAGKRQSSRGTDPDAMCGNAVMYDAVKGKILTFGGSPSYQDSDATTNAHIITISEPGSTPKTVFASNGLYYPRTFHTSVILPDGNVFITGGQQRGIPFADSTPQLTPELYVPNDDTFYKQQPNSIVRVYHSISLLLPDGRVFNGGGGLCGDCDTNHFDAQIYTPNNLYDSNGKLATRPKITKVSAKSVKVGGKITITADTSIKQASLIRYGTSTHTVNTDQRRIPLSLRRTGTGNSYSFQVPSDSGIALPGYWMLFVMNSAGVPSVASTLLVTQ

[2] = tested on: CO[C@@H]1O[C@H](CO)[C@H](O)[C@H](O)[C@H]1O; assay: purified protein; details: apparent constant, co-substrate O2 (air), 20 mM potassium phosphate pH 7.0, 30°C, Cu2+-activated enzyme
[3] = tested on: CO[C@H]1O[C@H](CO)[C@H](O)[C@H](O)[C@H]1O; assay: purified protein; details: apparent constant, co-substrate O2 (air), 20 mM potassium phosphate pH 7.0, 30°C, Cu2+-activated enzyme
[4] = tested on: OC[C@H]1O[C@H](OC[C@H]2O[C@H](O[C@]3(CO)O[C@H](CO)[C@@H](O)[C@@H]3O)[C@H](O)[C@@H](O)[C@@H]2O)[C@H](O)[C@@H](O)[C@H]1O; assay: purified protein; details: apparent constant, co-substrate O2 (air), 20 mM potassium phosphate pH 7.0, 30°C, Cu2+-activated enzyme

| Compound | Km [1] | Km [2] | Vmax [2] | kcat [2] | kcat/Km [2] | Km [3] | Vmax [3] | kcat [3] | kcat/Km [3] | Km [4] | Vmax [4] | kcat [4] | kcat/Km [4] |
| --- | --- | --- | --- | --- | --- | --- | --- | --- | --- | --- | --- | --- | --- |
| OC[C@H]1OC(O)[C@H](O)[C@@H](O)[C@H]1O (stereo partly drawn) [D-galactose] | 47 mM | – | – | – | – | – | – | – | – | – | – | – | – |
| GalOx (galactose 6-oxidase from Fusarium oxysporum G12) (Fusarium oxysporum) | – | 45 mM | 81 µmol/min/mg | 99 s⁻¹ | 2200 M⁻¹ s⁻¹ | 41 mM | 47 µmol/min/mg | 57 s⁻¹ | 1400 M⁻¹ s⁻¹ | 23 mM | 23 µmol/min/mg | 28 s⁻¹ | 1200 M⁻¹ s⁻¹ |
